Assay results reported in patent US6764837 (BOARD OF TRUSTEES OF THE UNIVERSITY OF ARKANSAS, dated 2004).

T1: RpoA (RNAP alpha subunit), untagged (Agrobacterium tumefaciens) (UniProt P0A4E3)
T1 sequence: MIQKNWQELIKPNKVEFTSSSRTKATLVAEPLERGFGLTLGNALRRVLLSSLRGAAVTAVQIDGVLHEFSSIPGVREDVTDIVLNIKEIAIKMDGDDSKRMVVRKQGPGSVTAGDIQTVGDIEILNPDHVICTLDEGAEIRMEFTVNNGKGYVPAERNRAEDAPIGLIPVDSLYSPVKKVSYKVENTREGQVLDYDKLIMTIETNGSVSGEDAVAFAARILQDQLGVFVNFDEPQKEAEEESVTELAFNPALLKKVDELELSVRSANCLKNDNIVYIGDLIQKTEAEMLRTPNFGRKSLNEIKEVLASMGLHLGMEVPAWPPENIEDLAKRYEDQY

T2: RpoA delta C-terminal 8 (residues 1-328) deletion of 329-336 (Agrobacterium tumefaciens) (UniProt P0A4E3)
T2 sequence: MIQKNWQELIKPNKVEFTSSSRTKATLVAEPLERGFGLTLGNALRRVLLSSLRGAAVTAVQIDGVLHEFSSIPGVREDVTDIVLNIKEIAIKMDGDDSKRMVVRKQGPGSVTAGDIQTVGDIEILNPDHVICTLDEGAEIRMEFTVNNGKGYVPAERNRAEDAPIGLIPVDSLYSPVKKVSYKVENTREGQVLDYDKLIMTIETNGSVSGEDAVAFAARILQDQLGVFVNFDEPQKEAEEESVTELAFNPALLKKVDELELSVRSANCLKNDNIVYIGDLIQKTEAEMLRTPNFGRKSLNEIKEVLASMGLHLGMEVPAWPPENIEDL


What was measured:
[1] = target: T1, RpoA (RNAP alpha subunit), untagged (Agrobacterium tumefaciens); test: cell_activity; conditions: pPS1.3 in E. coli MC4100(pSY215) with VirGcon; vector control 3; indirect reporter
[2] = target: T2, RpoA delta C-terminal 8 (residues 1-328) deletion of 329-336 (Agrobacterium tumefaciens); test: cell_activity; conditions: pAD8 in E. coli MC4100(pSY215) with VirGcon; vector control 3; indirect reporter
[3] = target: T3, E. coli RNA polymerase β′ subunit (Escherichia coli, UniProt P0A8T7 1-1407); test: in vitro reconstitution of RNAP, SDS-PAGE (FIG. 4A)
T3 construct: also called E. coli β′
T3 sequence (P0A8T7 whole entry): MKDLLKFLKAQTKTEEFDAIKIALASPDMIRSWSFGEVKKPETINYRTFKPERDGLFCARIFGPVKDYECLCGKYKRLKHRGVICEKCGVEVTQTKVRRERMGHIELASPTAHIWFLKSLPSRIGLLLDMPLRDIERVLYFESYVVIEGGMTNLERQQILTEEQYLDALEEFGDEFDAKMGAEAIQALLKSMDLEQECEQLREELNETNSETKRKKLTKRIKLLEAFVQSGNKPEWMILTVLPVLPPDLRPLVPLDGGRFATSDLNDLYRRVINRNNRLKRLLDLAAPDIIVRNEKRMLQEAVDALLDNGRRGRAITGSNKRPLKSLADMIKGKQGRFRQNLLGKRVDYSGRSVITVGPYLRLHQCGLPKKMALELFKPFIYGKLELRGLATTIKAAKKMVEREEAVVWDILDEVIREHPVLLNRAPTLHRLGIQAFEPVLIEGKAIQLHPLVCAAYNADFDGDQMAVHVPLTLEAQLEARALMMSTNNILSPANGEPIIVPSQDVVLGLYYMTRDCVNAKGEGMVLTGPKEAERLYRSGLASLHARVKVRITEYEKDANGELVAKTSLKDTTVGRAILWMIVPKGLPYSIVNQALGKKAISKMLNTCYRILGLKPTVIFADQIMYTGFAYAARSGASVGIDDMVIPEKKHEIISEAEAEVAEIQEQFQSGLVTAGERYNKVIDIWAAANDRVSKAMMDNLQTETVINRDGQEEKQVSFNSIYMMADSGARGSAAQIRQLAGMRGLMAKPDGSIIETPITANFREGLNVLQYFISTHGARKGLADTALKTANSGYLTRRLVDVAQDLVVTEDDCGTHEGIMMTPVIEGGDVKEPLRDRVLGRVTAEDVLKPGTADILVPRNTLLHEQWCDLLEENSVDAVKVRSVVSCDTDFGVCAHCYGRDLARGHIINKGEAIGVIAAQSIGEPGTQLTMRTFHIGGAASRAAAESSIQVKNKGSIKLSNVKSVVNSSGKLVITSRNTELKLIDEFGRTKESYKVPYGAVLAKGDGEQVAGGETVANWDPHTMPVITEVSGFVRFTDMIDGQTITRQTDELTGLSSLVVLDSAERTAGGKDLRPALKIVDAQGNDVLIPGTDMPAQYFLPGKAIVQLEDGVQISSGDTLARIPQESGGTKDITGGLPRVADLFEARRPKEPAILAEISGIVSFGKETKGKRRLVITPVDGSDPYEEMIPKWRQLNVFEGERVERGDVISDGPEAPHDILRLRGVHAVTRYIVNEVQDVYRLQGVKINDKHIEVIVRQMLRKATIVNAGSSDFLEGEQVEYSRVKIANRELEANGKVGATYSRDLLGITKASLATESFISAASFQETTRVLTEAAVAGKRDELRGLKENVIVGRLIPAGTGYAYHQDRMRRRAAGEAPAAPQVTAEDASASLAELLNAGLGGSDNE

[4] = target: T4, E. coli RNA polymerase β subunit (Escherichia coli, UniProt P0A8V2 1-1342); test: as above
T4 construct: also called E. coli β
T4 sequence (P0A8V2 whole entry): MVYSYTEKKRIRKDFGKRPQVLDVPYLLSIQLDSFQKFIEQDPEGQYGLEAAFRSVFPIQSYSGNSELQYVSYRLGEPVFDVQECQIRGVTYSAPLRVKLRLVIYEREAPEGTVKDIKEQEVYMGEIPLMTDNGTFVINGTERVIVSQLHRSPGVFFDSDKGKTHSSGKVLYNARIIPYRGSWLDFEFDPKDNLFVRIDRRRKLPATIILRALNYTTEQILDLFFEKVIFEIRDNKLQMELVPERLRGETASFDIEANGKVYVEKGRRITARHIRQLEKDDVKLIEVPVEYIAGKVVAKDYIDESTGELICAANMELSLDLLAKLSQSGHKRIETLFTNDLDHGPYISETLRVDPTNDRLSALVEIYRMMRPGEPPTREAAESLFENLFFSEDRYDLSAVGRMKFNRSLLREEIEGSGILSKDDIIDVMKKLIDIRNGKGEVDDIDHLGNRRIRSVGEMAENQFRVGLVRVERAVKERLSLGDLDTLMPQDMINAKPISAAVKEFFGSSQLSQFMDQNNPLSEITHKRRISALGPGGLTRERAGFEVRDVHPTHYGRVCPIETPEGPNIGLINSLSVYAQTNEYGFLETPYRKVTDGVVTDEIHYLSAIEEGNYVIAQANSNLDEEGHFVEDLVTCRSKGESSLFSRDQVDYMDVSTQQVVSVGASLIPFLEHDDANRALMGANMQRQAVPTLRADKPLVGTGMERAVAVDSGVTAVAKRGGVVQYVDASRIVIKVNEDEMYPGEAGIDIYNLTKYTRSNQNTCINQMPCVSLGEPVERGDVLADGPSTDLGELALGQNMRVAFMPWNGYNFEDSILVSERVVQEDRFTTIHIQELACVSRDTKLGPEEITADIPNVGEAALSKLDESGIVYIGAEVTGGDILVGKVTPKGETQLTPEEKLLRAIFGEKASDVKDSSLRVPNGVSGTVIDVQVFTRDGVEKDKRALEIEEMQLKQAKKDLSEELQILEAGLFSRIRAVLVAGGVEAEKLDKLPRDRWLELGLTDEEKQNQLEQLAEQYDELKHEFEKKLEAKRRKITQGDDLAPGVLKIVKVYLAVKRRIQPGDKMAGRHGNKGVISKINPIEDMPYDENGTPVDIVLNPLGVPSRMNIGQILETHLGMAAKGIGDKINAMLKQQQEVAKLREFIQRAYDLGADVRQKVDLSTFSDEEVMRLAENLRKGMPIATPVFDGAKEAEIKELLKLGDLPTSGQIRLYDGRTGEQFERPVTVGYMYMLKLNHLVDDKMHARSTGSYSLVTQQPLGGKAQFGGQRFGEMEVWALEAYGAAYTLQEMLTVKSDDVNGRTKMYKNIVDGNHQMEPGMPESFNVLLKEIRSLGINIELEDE

[5] = target: T5, E. coli RNA polymerase σ70 subunit (Escherichia coli, UniProt P00579 1-613); test: as above
T5 construct: also called σ^70
T5 sequence (P00579 whole entry): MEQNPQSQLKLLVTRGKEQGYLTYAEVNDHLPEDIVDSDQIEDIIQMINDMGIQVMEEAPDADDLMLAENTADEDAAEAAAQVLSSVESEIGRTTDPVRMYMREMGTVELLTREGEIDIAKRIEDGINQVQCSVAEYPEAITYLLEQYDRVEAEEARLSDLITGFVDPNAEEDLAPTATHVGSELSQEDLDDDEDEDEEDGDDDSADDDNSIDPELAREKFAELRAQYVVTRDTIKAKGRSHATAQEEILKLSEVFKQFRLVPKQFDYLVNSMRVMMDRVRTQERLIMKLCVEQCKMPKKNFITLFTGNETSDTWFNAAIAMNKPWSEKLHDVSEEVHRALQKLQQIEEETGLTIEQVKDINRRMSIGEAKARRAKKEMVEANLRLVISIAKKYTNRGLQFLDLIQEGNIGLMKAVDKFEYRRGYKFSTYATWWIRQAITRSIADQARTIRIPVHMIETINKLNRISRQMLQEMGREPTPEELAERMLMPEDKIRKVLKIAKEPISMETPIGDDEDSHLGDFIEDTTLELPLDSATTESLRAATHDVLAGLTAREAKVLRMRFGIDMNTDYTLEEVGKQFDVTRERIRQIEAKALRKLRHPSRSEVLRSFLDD

| Molecule | activity [1] | activity [2] | binding result [3] | binding result [4] | binding result [5] |
| --- | --- | --- | --- | --- | --- |
| virBp::lacZ reporter promoter | 140 Miller units | 4 Miller units | – | – | – |
| His-tagged RpoA (α subunit of RNA polymerase) of A. tumefaciens (other, not shown: N-terminal His tag from a pQE vector (Qiagen)) MIQKNWQELIKPNKVEFTSSSRTKATLVAEPLERGFGLTLGNALRRVLLSSLRGAAVTAVQIDGVLHEFSSIPGVREDVTDIVLNIKEIAIKMDGDDSKRMVVRKQGPGSVTAGDIQTVGDIEILNPDHVICTLDEGAEIRMEFTVNNGKGYVPAERNRAEDAPIGLIPVDSLYSPVKKVSYKVENTREGQVLDYDKLIMTIETNGSVSGEDAVAFAARILQDQLGVFVNFDEPQKEAEEESVTELAFNPALLKKVDELELSVRSANCLKNDNIVYIGDLIQKTEAEMLRTPNFGRKSLNEIKEVLASMGLHLGMEVPAWPPENIEDLAKRYEDQY | – | – | binds | binds | binds |
